Experimental findings from patent publication US20060263849A1, “Glucagon-like peptide-1 analogs” (priority 2000, published 2006) are described below.

“And” between values parts separate entries of the source, which are not always exact repeats. Identical values can stand only once.

Data set [1] in a line: GLP Aggregation Assay (time to onset of aggregation, turbidity at 350 nm). Format: physicochemical. To be noted: 0.3 mg/mL in 10 mM citrate, 10 mM phosphate, 150 mM NaCl, pH 7.4 to 7.5, 37° C., stirred, turbidity at 350 nm. As for the experimental part: GLP peptides of this invention were analyzed with respect to their potential to aggregate in solution. In general, peptides in solution were stirred at elevated temperature in a suitable buffer while recording turbidity at 350 nm as a function of time. Time to the onset of aggregation was measured to quantify the potential of a given GLP molecule to aggregate under these stressed conditions.
A GLP-1 compound was first dissolved under alkaline conditions (pH 10.5) for 30 minutes to dissolve any pre-aggregated material. The solution was then adjusted to pH 7.4 and filtered. Specifically, 4 mg of a lyophilized GLP-1 compound was dissolved in 3 ml of 10 mM phosphate/10 mM citrate. The pH was adjusted to 10.0-10.5 and held for 30 minutes. The solution was adjusted with HCl to pH 7.4 and filtered through a suitable filter, for example a Millex GV syringe filter (Millipore Corporation, Bedford, Mass.). This solution was then diluted to a final sample containing 0.3 mg/mL protein in 10 mM citrate, 10 mM phosphate, 150 mM NaCl, and adjusted to pH 7.4 to 7.5. […] Every five minutes the turbidity of the solution was measured at 350 nm on an AVIV Model 14DS UV-VIS spectrophotometer (Lakewood, N.J.). For 30 seconds prior to and during the measurement the solution was stirred using a magnetic stir bar from Starna Cells, Inc. (Atascadero, Calif.). An increase in OD at 350 nm indicates aggregation of the GLP-peptide. The time to aggregation was approximated by the intersection of linear fits to the pre-growth and growth phase according to method of Drake (Arvinte T, Cudd A, and Drake A F. (1993) J. Bio. Chem. 268, 6415-6422).
The cuvette was cleaned between experiments with a caustic soap solution (e.g., Contrad-70).
The results for a number of GLP-1 compounds of the present invention are reported in Table 1 as the time in hours required for the compound to aggregate.

The subject of a further data set is GLP-1 receptor. Kind of data set: GLP-1 receptor activation, in vitro assays. The format is cell-based. To be noted: activity relative to the activity of GLP-1(7-37)OH. An excerpt: “Insulinotropic activity” refers to stimulating insulin secretion in response to elevated glucose levels, thereby causing glucose uptake by cells and decreased serum glucose levels. Insulinotropic activity can be assessed by methods known in the art, including using in vivo experiments and in vitro assays that measure GLP-1 receptor binding activity or receptor activation, e.g., assays employing pancreatic islet cells or insulinoma cells, as described in EP 619,322 to Gelfand, et al., and U.S. Pat. No. 5,120,712, respectively. The entire teachings of these references are incorporated herein by reference.
The ability of the GLP-1 compounds of the present invention to activate the GLP-1 receptor was assessed using in vitro assays such as those described in EP 619,322 to Gelfand, et al., and U.S. Pat. No. 5,120,712, respectively. The entire teachings of these references are incorporated herein by reference.

Data set [2] in a line: Zinc precipitation of GLP-1 compounds (A280 of supernatant). Format: physicochemical. The conditions noted are these: HEPES pH 7.4, 22° C., 18 hours. As for the experimental part:
Individual GLP-1 compounds were prepared as described in Examples 1 or 2. 3 mg of an individual lyophilized GLP molecule was dissolved in 3 ml 0.1 M HEPES buffer pH 10.5. The pH of the resulting solution was then adjusted to between 10.0 and 10.5 with 0.2 N NaOH. The solution was stirred at ambient temperature for 30 minutes and the solution was then adjusted to a pH of 7.4 with 0.2 N HCl. The solution was filtered through an appropriate syringe filter, for example a Millex GV syringe filter (Millipore Corporation, Bedford, Mass.), and the concentration of the GLP-1 compound was estimated by measuring the absorption at 280 nm in a spectrophotometer, for example a Beckman DU640. The protein concentration was then adjusted to 200 μM in HEPES pH 7.4.
The filtered GLP-1 solutions (100 μl) were diluted with 100 μl of 0.1 M HEPES pH 7.4 containing various levels of zinc chloride in an ELISA plate, (e.g. Falcon Microtest™ 96) resulting in 200 μl of solution containing various levels of zinc chloride and 100 μM GLP-1 compounds. These solutions were incubated at ambient temperature (22° C.) for 18 hours and then centrifuged, for example, in a Jouan CR412 centrifuge with microplate adapters. 150 μl of the supernatants after centrifugation were then transferred to a UV-readable ELISA microtiter plate (e.g. Costar UV plate) and the OD at 280 was determined in a microplate reader (e.g. Molecular Devices SPECTRAmax PLUS, SOFTmax PRO). A280 values are the result of two independent determinations.

[3] abbreviates: Zn/GLP-1 molar ratio 0, 100 μM GLP-1 compound.
The mark [4] stands for this setting: Zn/GLP-1 molar ratio 0.3, 100 μM GLP-1 compound.
The mark [5] stands for this setting: Zn/GLP-1 molar ratio 0.5, 100 μM GLP-1 compound.
[6] abbreviates: Zn/GLP-1 molar ratio 0.7, 100 μM GLP-1 compound.
Where [7] appears, read: Zn/GLP-1 molar ratio 1, 100 μM GLP-1 compound.
Setting [8] is: Zn/GLP-1 molar ratio 2, 100 μM GLP-1 compound.
[9] abbreviates: Zn/GLP-1 molar ratio 3, 100 μM GLP-1 compound.
The mark [10] stands for this setting: Zn/GLP-1 molar ratio 5, 100 μM GLP-1 compound.

For “Val^8-Lys^22-GLP-1(7-37)OH (HVEGTFTSDVSSYLEKQAAKEFIAWLVKGRG)”, in data set [1], the “Aggregation Time” value was 100 h and 54 h. In the data set with GLP-1 receptor, the “GLP-1 Receptor Activation” value amounted to 0.58. For the same substance, the A280 came out at 0.299 in data set [2] (setting [3]); 0.0825 in data set [2] (setting [4]); 0.0905 in data set [2] (setting [5]); 0.1195 in data set [2] (setting [6]); 0.1225 in data set [2] (setting [7]); 0.1675 in data set [2] (setting [8]). Moreover, the A280 was determined as 0.1475 in data set [2] (setting [9]) and 0.142 in data set [2] (setting [10]).

Turning to “Val^8-Pro^22-GLP-1(7-37)OH (HVEGTFTSDVSSYLEPQAAKEFIAWLVKGRG)”, in data set [1], the “Aggregation Time” value was above 75 h. The “GLP-1 Receptor Activation” value in the data set on GLP-1 receptor is given as 0.01. The A280 was found to be 0.2595 in data set [2] (setting [3]); 0.2455 in data set [2] (setting [4]); 0.2325 in data set [2] (setting [5]); 0.219 in data set [2] (setting [6]); 0.1905 in data set [2] (setting [7]); 0.1695 in data set [2] (setting [8]). Moreover, the A280 in data set [2] (setting [9]) stood at 0.1615; in data set [2] (setting [10]), 0.171.

As for “Val^8-Ser^22-GLP-1(7-37)OH (HVEGTFTSDVSSYLESQAAKEFIAWLVKGRG)”, the “Aggregation Time” value in data set [1] worked out at 22 h. The “GLP-1 Receptor Activation” value with GLP-1 receptor amounted to 0.50. Moreover, the A280 is 0.2855 in data set [2] (setting [3]); 0.2805 in data set [2] (setting [4]); 0.2665 in data set [2] (setting [5]); 0.1825 in data set [2] (setting [6]); 0.149 in data set [2] (setting [7]); 0.0935 in data set [2] (setting [8]). The A280 is 0.101 in data set [2] (setting [9]) and 0.0615 in data set [2] (setting [10]).
